According to IntAct's records for PubMed 22665060:

B1: Tight junction protein 2 (Homo sapiens), Q9UDY2-3 (parent)
chain: MEELIWEQYTVTLQKDSKRGFGIAVSGGRDNPHFENGETSIVISDVLPGGPADGLLQENDRVVMVNGTPMEDVLHSFAVQQLRKSGKVAAIVVKRPRKVQVAALQASPPLDQDDRAFEVMDEFDGRSFRSGYSERSRLNSHGGRSRSWEDSPERGRPHERARSRERDLSRDRSRGRSLERGLDQDHARTRDRSRGRSLERGLDHDFGPSRDRDRDRSRGRSIDQDYERAYHRAYDPDYERAYSPEYRRGARHDARSRGPRSRSREHPHSRSPSPEPRGRPGPIGVLLMKSRANEEYGLRLGSQIFVKEMTRTGLATKDGNLHEGDIILKINGTVTENMSLTDARKLIEKSRGKLQLVVLRDSQQTLINIPSLNDSDSEIEDISEIESNRSFSPEERRHQYSDYDYHSSSEKLKERPSSREDTPSRLSRMGATPTPFKSTGDIAGTVVPETNKEPRYQEDPPAPQPKAAPRTFLRPSPEDEAIYGPNTKMVRFKKGDSVGLRLAGGNDVGIFVAGIQEGTSAEQEGLQEGDQILKVNTQDFRGLVREDAVLYLLEIPKGEMVTILAQSRADVYRDILACGRGDSFFIRSHFECEKETPQSLAFTRGEVFRVVDTLYDGKLGNWLAVRIGNELEKGLIPNKSRAEQMASVQNAQRDNAGDRADFWRMRGQRSGVKKNLRKSREDLTAVVSVSTKFPAYERVLLREAGFKRPVVLFGPIADIAMEKLANELPDWFQTAKTEPKDAGSEKSTGVVRLNTVRQIIEQDKHALLDVTPKAVDLLNYTQWFPIVIFFNPDSRQGVKTMRQRLNPTSNKSSRKLFDQANKLKKTCAHLFTATINLNSANDSWFGSLKDTIQHQQGEAVWVSEGKMEGMDDDPEDRMSYLTAMGADYLSCDSRLISDFEDTDGEGGAYTDNELDEPAEEPLVSSITRSSEPVQHEESIRKPSPEPRAQMRRAASSDQLRDNSPPPAFKPEPPKAKTQNKEESYDFSKSYEYKSNPSAVAGNETPGASTKGYPPPVAAKPTFGRSILKPSTPIPPQEGEEVGESSEEQDNAPKSVLGKVKIFEKMDHKARLQRMQELQEAQNARIEIAQKHPDIYAVPIKTHKPDPGTPQHTSSRPPEPQKAPSRPYQDTRGSYGSDAEEEEYRQQLSEHSKRGYYGQSARYRDTEL
partner: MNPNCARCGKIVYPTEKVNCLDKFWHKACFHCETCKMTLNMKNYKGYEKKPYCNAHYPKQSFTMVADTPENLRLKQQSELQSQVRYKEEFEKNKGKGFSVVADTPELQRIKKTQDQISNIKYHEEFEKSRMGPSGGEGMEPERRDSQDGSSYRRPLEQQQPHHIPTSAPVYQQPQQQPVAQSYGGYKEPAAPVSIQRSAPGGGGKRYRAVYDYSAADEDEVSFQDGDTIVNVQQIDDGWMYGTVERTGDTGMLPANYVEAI

Variants of: B1
Settings: with lasp1_human LASP1, Q14847

effect of a mutation on the interaction	Variant
disrupting interaction strength	P1106A;P1116A
decreasing interaction	P1106A
